Percent of the observation period with both EGFR and MET bound to amivantamab and percent of the observation period bound data for 1 substance are collected here from publication PMC12775570.

The target in test [1] is His-tagged recombinant human EGFR extracellular domain (Homo sapiens) (UniProt P00533). Nature of the test: high-speed atomic force microscopy.
The target in test [2] is Recombinant human MET extracellular domain (Homo sapiens) (UniProt P08581). The test is described as follows: high-speed atomic force microscopy.

Take Amivantamab (bispecific antibody): the percent of the observation period with both EGFR and MET bound to amivantamab in test [1] stood at 78%. In addition, in test [2], the percent of the observation period bound is 87%; the percent of the observation period with both EGFR and MET bound to amivantamab was found to be 78%.
